Consider two molecules from PMC3019558 (The Journal of Cell Biology, 2011).

One experiment deals with GDNF, NRTN, and ARTN. As to the kind of experiment: SPR. In general terms: Surface plasmon resonance follows binding to a sensor surface in real time, without labels.
Experiment [1] has as its target HS-carrying extracellular domain of syndecan-3 purified from rat brain (rat, UniProt P33671 45-387, heparan sulfate (HS) chains). As to the kind of experiment: SPR.

HS-carrying extracellular domain of syndecan-3 purified from rat brain (rat, UniProt P33671 45-387, heparan sulfate (HS) chains), sequence (P33671 45-387): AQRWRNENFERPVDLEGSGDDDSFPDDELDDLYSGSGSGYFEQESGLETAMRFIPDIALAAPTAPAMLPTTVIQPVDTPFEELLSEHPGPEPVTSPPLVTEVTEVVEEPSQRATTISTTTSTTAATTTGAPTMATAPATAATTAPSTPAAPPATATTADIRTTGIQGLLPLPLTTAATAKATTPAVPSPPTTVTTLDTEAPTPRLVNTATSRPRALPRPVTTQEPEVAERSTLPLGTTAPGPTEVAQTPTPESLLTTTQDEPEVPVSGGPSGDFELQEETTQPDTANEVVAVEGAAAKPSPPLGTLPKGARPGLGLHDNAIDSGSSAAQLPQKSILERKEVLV

By Kd is commonly meant the constant that tells how readily two partners part at equilibrium. The low end stands for tighter binding, the high end for weaker binding. “HS-carrying extracellular domain of syndecan-3 purified from rat brain (from UniProt P33671 45-387) (domain or fragment)” showed a Kd with GDNF, NRTN, and ARTN of 10 to 50 nM.

B1: persephin (PSPN) (ligand, UniProt O60542 61-156, looked up)
chain: ALSGPCQLWSLTLSVAELGLGYASEEKVIFRYCAGSCPRGARTQHGLALARLQGQGRAHGGPCCRPTRYTDVAFLDDRHRWQRLPQLSAAACGCGG
B1: the Kd in experiment [1] was more than 70 nM.
